# According to patent publication US10413564B2, “Compositions and methods for combating drug-resistant cancers” (NATIONAL YANG-MING UNIVERSITY, priority 2016, dated 2019):
# “Also recorded” adds a separate entry of the source. Like-named read-outs stand apart in the source and are kept apart here.
# Key:
# [1] = system: colorectal tumors harboring a KRAS mutation; settings: patients, FDA approval background; cited from earlier work
# [2] = system: OECM1-Ctx^R or primary HNSCC cells; assay: Sensitization to cetuximab treatment by pathway inhibitors
# Description: (§2) A total of 5×10^4 cells per well were seeded in a 96-well plate with triplicate and incubated for 24 h and then treated with different concentrations of indicated drugs. After 24 h treatment, the medium was removed. The MTT assay solution was added to each well, and the plate was incubated for 1 h at 37° C. After incubation, the solution was carefully discarded and dimethyl sulphoxide was added to dissolve newly formed mitochondrial MTT crystals. Finally, the plate was read using a microplate reader at 540 nm. Based on the data of cell viability assay, IC50-value calculation was performed by Sigmaplot 10.0 (Systat Software Inc., San Jose, Calif.).
# EGFR-ICD = EGFR-ICD (Homo sapiens, UniProt P00533); assay: In vitro binding assay, EGFR-ICD and LTβ interaction; settings: LTβ β-sheet peptides
# Source text: (§1) Since LTβ also induces EGFR-ICD phosphorylation in vitro, the applicant also investigated whether interception of EGFR-ICD and LTβ interaction could attenuate EGFR phosphorylation.
# EGFR-ECD = EGFR-ECD (Homo sapiens, UniProt P00533); assay: Peptide in vitro binding assay with EGFR-ECD; settings: in vitro binding assay of peptides P1-P10
# Description: The purified full-length EGFR and EGFR-ECD was incubated with peptides containing sequences of different β-sheets of LTβ.
# P1-P10 (SEQ ID NOs: 2-10) were tested for in vitro binding assay.
# OECM1-Ctx^R cells [3] = assay: Growth inhibition of the cetuximab-resistant subline OECM1-Ctx^R; type: cell-based, human
# Description: as §2
# NF-κB = NF-κB luciferase reporter assay; type: cell-based, human; settings: cetuximab-resistant cells
# Source text: Activation of NF-κB in cetuximab-resistant cells was evident by an increased expression of nuclear p65 and p52 proteins and an enhanced NF-κB activity. Knockdown of LTB reduced nuclear p65 and p52, and suppression of LTB by either shRNA or a LTβ neutralizing antibody reduced NF-κB reporter activity.
# The reporter constructs (PGL4.2-LTB-WT/PGL4.2-LTB-MUT/pGL4.23 promoter) were co-transfected into HEK-293T, FaDu or OECM1/OECM1-Ctx^R cells with different expression/control vector(s) as indicated in each experiment. A plasmid expressing the bacterial β-galactosidase gene (pCMV-βgal) was co-transfected in each experiment as an internal control for transfection efficiency. Cells were harvested after 48 hours of transfection and luciferase activities were assayed. The relative promoter activities were expressed as the fold-change in luciferase activity after normalization to β-galactosidase activity.
# FaDu-Ctx^R cells = assay: Growth inhibition of the cetuximab-resistant subline FaDu-Ctx^R; type: cell-based, human
# Description: A cetuximab-resistant HNSCC subline (named FaDu-Ctx^R) was established by in vivo selection. 1×10^5 wild-type FaDu cells per mouse were inoculated into the subcutaneous area of Balb/c nude mice (n=4). Two mice were treated with PBS and two were treated with cetuxmab once a week. […] After 10 weeks, the xenograpfted tumor was harvested for primary culture. […] The resistance of FaDu-Cxt^R was confirmed in vivo and in vitro. Subsequently, these two sublines were inoculated into nude mice again and treated with cetuximab.
# After 24 h treatment, the medium was removed.
# OECM1-Ctx^R cells [4] = assay: Clonogenecity assay, sensitization of OECM1-Ctx^R to cetuximab by peptides; type: cell-based, human; settings: OECM1-Ctx^R / cetuximab-resistant cells
# Description: The colonies were stained with crystal violet and counted if the size was great than 0.5 mm.
# 5,000 cells/well were seeded into 24-well plates. After 10 days of culturing, cells were washed by cold PBS twice and fixed by 4% paraformaldehyde for 1 hour. Cells then were stained by 0.005% crystal violet at 4° C. overnight. Colonies with a diameter larger than 0.5 mm were counted.
# EGF-EGFR binding = target: T1, EGF-EGFR binding (Homo sapiens, UniProt P00533); assay: EGF binding (flow cytometry); type: cell-based; settings: OECM1-Ctx^R
# T1 construct: examined the effect of treating the peptides containing different β-sheets of LTβ on OECM1-Ctx^R; endogenous in cells; host or cells: OECM1-CtxR (cetuximab-resistant subline of OECM1); parental OECM1 for comparison
# Description: To analyze EGF binding, the cells were resuspended, incubated in a PE-conjugated anti-EGF antibody and evaluated using a Cytomics FC 500 instrument (Beckman-Coulter Inc., Fullerton, Calif.). The EGF-bound populations were defined compared with the IgG control group.
# EGFR [5] = target: T2, EGFR (Homo sapiens, UniProt P00533); assay: EGFR dimerization in OECM1-Ctx^R; type: cell-based; parameters: examined the effect of treating the peptides containing different β-sheets of LTβ on OECM1-Ctx^R; endogenous in cells; host or cells: OECM1-CtxR (cetuximab-resistant subline of OECM1); parental OECM1 for comparison
# EGFR [6] = target: T2, EGFR; assay: In vitro kinase assay of EGFR phosphorylation; type: biochemical; parameters: Since LTβ also induces EGFR-ICD phosphorylation in vitro
# Source text: as §1
# EGFR [7] = target: T2, EGFR; assay: EGFR Y1068 phosphorylation in OECM1-Ctx^R treated with LTβ β-sheet peptides; type: cell-based; parameters: examined the effect of treating the peptides containing different β-sheets of LTβ on OECM1-Ctx^R; endogenous in cells; host or cells: OECM1-CtxR (cetuximab-resistant subline of OECM1); parental OECM1 for comparison
molecule,measurement,setting,value
panitumumab,effect in colorectal tumors harboring a KRAS mutation,[1],little or no effect
CC(C)C[C@H](NC(=O)[C@H](Cc1ccccc1)NC(=O)c1cnccn1)B(O)O [bortezomib],sensitization to cetuximab treatment by inhibition of NF-κB activity,[2],sensitized
WYTSVGFGGLVQLR (beta-sheet of LTbeta) [P8],interaction in the in vitro binding assay (EGFR-ICD context),EGFR-ICD,interacted with LTβ
same,interaction with EGFR-ECD,EGFR-ECD,interact
CCGGCGAGAGGGTGTACGTCAACATCTCGAGATGTTGACGTACACCCTCTCGTTTTT G (CCGGCGAGAGGGTGTACGTCAACATCTCGAGATGTTGACGTACACCCTCTCGTTTTTG; expressed or natural sequence) [shRNA],cetuximab resistance after knockdown of LTβ,OECM1-Ctx^R cells [3],reverses cetuximab resistance
same,NF-κB reporter activity,NF-κB,reduced
same,cetuximab resistance after knockdown of LTβ,FaDu-Ctx^R cells,reverses cetuximab resistance
ERVYVNISH (beta-sheet of LTbeta) [P9],sensitization to cetuximab treatment by peptide,OECM1-Ctx^R cells [4]; listed as 9th β-sheet,capable for sensitizing; also recorded: sensitized
same,interaction in the in vitro binding assay (EGFR-ICD context),EGFR-ICD,interacted with LTβ
same,EGF-EGFR binding,EGF-EGFR binding,reduced
same,EGFR dimerization,EGFR [5],inhibits
same,"EGFR phosphorylation, in vitro kinase assay",EGFR [6],suppresses EGFR phosphorylation most significantly
same,EGFR Y1068 phosphorylation,EGFR [7]; listed as 9th β-sheet,suppressed; also recorded: more prominent effect
same,interaction with EGFR-ECD,EGFR-ECD,interact
QDGLYYLYCLVGYR (beta-sheet of LTbeta) [P5],sensitization to cetuximab treatment by peptide,OECM1-Ctx^R cells [4]; listed as 5th β-sheet,capable for sensitizing; also recorded: sensitized
same,interaction in the in vitro binding assay (EGFR-ICD context),EGFR-ICD,interacted with LTβ
same,"EGFR phosphorylation, in vitro kinase assay",EGFR [6],suppresses EGFR phosphorylation most significantly
same,EGFR Y1068 phosphorylation,EGFR [7],suppressed
same,interaction with EGFR-ECD,EGFR-ECD,interact
